# Laboratory results taken from US20230119254A1, “SYNERGISTIC AND TARGETING COMPOSITIONS FOR TREATMENT OF ARTERIAL AND VENOUS THROMBOSIS” (AstraZeneca AB, priority 2020, published 2023).
# “Also recorded” adds a separate entry of the source. Like-named read-outs stand apart in the source and are kept apart here.
# Legend:
# [1] = tested on: arterial thrombosis; experiment: Electrical injury model (EIM) of arterial thrombosis in rabbits; format: in vivo, rabbit
# Procedure: Rabbits were randomized into the following eleven groups with the treatments initiated 30 min before electrical injury.
# Electrical injury generated occlusion in 60% of the rabbits treated with saline within 2 h. Average thrombosis weight was 7.8 mg.
# [2] = tested on: thrombin generation in human platelet rich plasma; experiment: Thrombin generation by calibrated automated thrombography (CAT) in ADP-activated human PRP; format: cell-based; conditions: for peak thrombin concentration / time to peak thrombin: 20 uM ADP-activated human platelets, equal molar concentrations
# Procedure: Shown are thrombograms of nanomolar thrombin that were generated in human platelet rich plasma activated with […].
# Thrombin generation in citrated human platelet rich plasma (PRP) was quantified by calibrated automated thrombography (CAT) using the Thrombinoscope system (Synapse), according to methods developed by Hemker et al. Aliquots of PRP were incubated with agents for 15 min at room temperature, and then for 5 min at 37° C. in wells of 96-well plates. Thrombin generation was initiated by addition of 0.5 pM tissue factor and CaCl2 to 16.7 mM and monitored in a microtiter plate fluorometer (Fluoroskan Ascent, Thermo Electron Corp., Vantaa, Finland). Thrombograms (nM thrombin generated vs. time) were generated using the Thrombinoscope software, as were key thrombin generation parameters: lag time to onset of thrombin generation (min), peak thrombin concentration (nM), time to peak thrombin (min), and endogenous thrombin potential (ETP; integrated area under the thrombogram curve).
# The effects of APT102, annexin V, APT102+annexin V, and APT402 at equal molar concentrations on thrombin generation from 20 uM ADP-activated human platelets were compared using CAT assays (FIG. 3). […] These features were mimicked by APT402.
# [3] = comparison value for annexin V; cited from earlier work
# [4] = Malachite green assay of enzymatic kinetic parameters; format: biochemical
# [5] = tested on: human platelet-rich plasma (PRP); experiment: ADP-induced human platelet aggregation in platelet-rich plasma; format: cell-based; conditions: ADP-activated, light transmission, 6 min
# Procedure: FIGS. 1A and 1B show the effect of apyrase APT102 used as such and of a fusion protein thereof, APT402, on platelet aggregation in an ex vivo reaction mixture comprising human platelet-rich plasma (PRP) activated with 20 μM ADP. […] X axis is the assay time (6 min duration), Y axis is the light transmission. […] Arrows indicate addition of ADP and apyrases.
# The inhibitory activity on FX activation was assayed using peripheral blood mononuclear cells (PBMC) purified from normal human donors and anesthetized rabbits by standard methods. […] As expected, APT102 had no effect on PBMC pro-coagulant activity.
# [6] = tested on: platelet aggregation; experiment: Ex vivo ADP-induced platelet aggregation after single IV bolus in rabbits; conditions: rabbit, 0.40 mg/kg IV bolus
# [7] = tested on: rabbit platelet rich plasma; experiment: ADP-induced platelet aggregation in rabbit PRP during and after bolus plus infusion; format: in vivo; conditions: for ADP-induced (50 uM) platelet aggregation in rabbit PRP: 0.2 mg/kg bolus then 24 μg/kg/min for 120 min
# [8] = tested on: thrombin generation; experiment: Thrombin generation during and after bolus plus infusion in rabbits; format: in vivo, rabbit; conditions: for thrombin generation: 0.2 mg/kg bolus then 24 μg/kg/min for 120 min
# [9] = Haemostasis parameters in healthy rabbits with bolus plus infusion; format: in vivo, rabbit
# [10] = tested on: IVC thrombosis; format: in vivo, mice; conditions: for reduction of thrombus weight: mice
# Procedure: An electrical injury model of venous thrombosis was used for acute study (Diaz J A et al. Thromb Haemost. 104: 366-375, 2010.
# Mice were randomized into the following four groups (n=10/group).
# The EIM consistently generated IVC thrombosis in all mice with the mean thrombus weight of 22.5 mg. Thrombus weight, BT, APTT and TCT were measured 48 h post DVT induction.
# [11] = tested on: IVC fibrosis (collagen deposition); experiment: Chronic murine electrolytic injury model (EIM) of DVT, fibrosis; format: in vivo; conditions: mice, 1.0 mg/kg ip bolus daily for 14 days
# Excerpt: In a chronic fibrotic study, mice were randomized and blinded into the following groups (n=5-12/group).
# Collagen deposition was stained with Masson's trichrome 14 days post DVT induction.
# [12] = rabbit, in vivo, iv, 0.4 mg/kg
# [13] = rabbit, in vivo, iv, 0.2 mg/kg
# [14] = tested on: thrombotic sites of injured arteries; conditions: rabbit, in vivo
# Procedure: A. APT402 was conjugated to the fluorescent dye (LS288); B. Fluorescent intensity in the injured artery of the rabbit treated with APT402 at 0.2 mg/kg bolus followed by 12 mg/kg/min for 120 min. Each bar represents the mean of 3 readings. C.
# A near infra-red (NIR) fluorescent dye (LS288, Ex/Em 773/793) in methanol was conjugated to the functional amines of APT402 (˜1:1). […] For in vivo imaging of the thrombus by fluorescent molecular tomography (FMT), a custom built, fiber-based, portable, video-rate system was used as described (CITE).
# [15] = PK (ELISA) with bolus plus continuous IV infusion in rabbits; conditions: rabbit, bolus plus 120 min infusion; significantly decreased 60 min after discontinuation
# [16] = Pharmacokinetics (ADPase activity) after single IV bolus in rabbits
# [17] = rabbit EIM, group doses of the 2nd table
# [18] = rabbit, bolus plus 120 min infusion, significantly decreased 60 min after discontinuation
molecule,measurement,setting,value
"CCCSc1nc(N[C@@H]2C[C@H]2c2ccc(F)c(F)c2)c2nnn([C@@H]3C[C@H](OCCO)[C@@H](O)[C@H]3O)c2n1 [ticagrelor, reference compound]",occlusion within 2 h,"[1]; rabbit EIM, ticagrelor 10 mg/kg oral, bivalirudin 5 mg/kg IV bolus then 5 mg/kg/h",completely prevented occlusion
same,bleeding time (BT),"[1]; rabbit, in vivo",prolonged
same,partial thromboplastin time,"[1]; rabbit, in vivo",increased
annexin V: protein that binds phosphatidyl serine on activated platelets in competition with prothrombinase complex,peak thrombin concentration,[2],modestly decreasing
same,time to peak thrombin,[2],significantly increased
same,distribution half-life,[3],5 min
same,elimination half-life,[3],20 min
"CC[C@H](C)[C@H](NC(=O)[C@H](CCC(=O)O)NC(=O)[C@H](CCC(=O)O)NC(=O)[C@H](Cc1ccccc1)NC(=O)[C@H](CC(=O)O)NC(=O)CNC(=O)[C@H](CC(N)=O)NC(=O)CNC(=O)CNC(=O)CNC(=O)CNC(=O)[C@@H]1CCCN1C(=O)[C@H](CCCNC(=N)N)NC(=O)[C@@H]1CCCN1C(=O)[C@H](N)Cc1ccccc1)C(=O)N1CCC[C@H]1C(=O)N[C@@H](CCC(=O)O)C(=O)N[C@@H](CCC(=O)O)C(=O)N[C@@H](Cc1ccc(O)cc1)C(=O)N[C@@H](CC(C)C)C(=O)O [bivalirudin, Bivalirudin, reference compound]",partial thromboplastin time,[1]; [17],increased
same,prothrombin time,[1]; [17],increased
same,bleeding time (BT),"[1]; rabbit EIM, group doses of the 2nd table, BT measurement ceiling 5 min",prolonged
"COC(=O)[C@H](c1ccccc1Cl)N1CCc2sccc2C1 [clopidogrel, Clopidogrel, reference compound]",bleeding time (BT),"[1]; rabbit, in vivo",prolonged
"APT402: fusion protein of apyrase APT102, 20 amino acid linker and annexin V (SEQ ID NO: 7-10) (protein, CDS (1)..(2397)) MMSFVSLLLVGILFHATQADAPEVLPPGLKYGIVLDAGSSGTRVYVYQWPAEKENNTGVVSQTFKCSVKGSGISSYGNNPQDVPRAFEECMQKVKGQVPSHLHGSTPIHLGATAGMRLLRLQNETAANEVLESIQSYFKSQPFDFRGAQIISGQEEGVYGWITANYLMGNFLEKNLWHMWVHPHGVETTGALDLGGASTQISFVAGEKMDLNTSDIMQVSLYGYVYTLYTHSFQCYGRNEAEKKFLAMLLQNSPTKNHLTNPCYPRDYSISFTMGHVFDSLCTVDQRPESYNPNDVITFEGTGDPSLCKEKVASIFDFKACHDQETCSFDGVYQPKIKGPFVAFAGFYYTASALNLSGSFSLDTFNSSTWNFCSQNWSQLPLLLPKFDEVYARSYCFSANYIYHLFVNGYKFTEETWPQIHFEKEVGNSSIAWSLGYMLSLTNQIPAESPLIRLPIEPPVGSTSGGSTSGGSTSGSGATIAQVLRGTVTDFPGFDERADAETLRKAMKGLGTDEESILTLLTSRSNAQRQEISAAFKTLFGRDLLDDLKSELTGKFEKLIVALMKPSRLYDAYELKHALKGAGTNEKVLTEIIASRTPEELRAIKQVYEEEYGSSLEDDVVGDTSGYYQRMLVVLLQANRDPDAGIDEAQVEQDAQALFQAGELKWGTDEEKFITIFGTRSVSHLRKVFDKYMTISGFQIEETIDRETSGNLEQLLLAVVKSIRSIPAYLAETLYYAMKGAGTDDHTLIRVMVSRSEIDLFNIRKEFRKNFATSLYSMIKGDTSGDYKKALLLLCGEDD",enzymatic kinetic parameters for ATP and ADP,[4],comparable to those of APT102
same,inhibition of ADP-induced human platelet aggregation,[5],dose-dependently inhibits; also recorded: comparable potency to APT102
same,peak thrombin concentration,[2],mimicked
same,time to peak thrombin,[2],mimicked
same,inhibition of thrombin generation,[2]; ADP-activated human PRP,comparable inhibitory effects
same,inhibition of 20 μM ADP-induced ex vivo platelet aggregation,[6]; 1 h after dosing,90%
same,inhibition of 20 μM ADP-induced ex vivo platelet aggregation,[6]; 6 h after dosing,80%
same,inhibition of 20 μM ADP-induced ex vivo platelet aggregation,[6]; by 10 min after dosing,95%
same,ADP-induced (50 uM) platelet aggregation in rabbit PRP,[7]; at 60 and 110 min,effectively inhibited
same,ADP-induced (50 uM) platelet aggregation in rabbit PRP,[7]; at 180 min,returned to the baseline level
same,inhibition of ADP-induced platelet aggregation over time,[7]; [18],maintained up to 120 min during infusion
same,thrombin generation,[8]; at 60 and 110 min,effectively attenuated
same,thrombin generation,[8]; at 180 min,returned to the baseline level
same,inhibition of thrombin generation over time,[8]; [18],maintained up to 120 min during infusion
same,ACT vs control animals,[9],no differences
same,PT vs control animals,[9],no differences
same,aPTT vs control animals,[9],no differences
same,bleeding time vs control animals,[9],no differences
same,platelet counts vs control animals,[9],no differences
same,thrombus weight compared with any other treatments,"[1]; rabbit EIM, 24 ug/kg/min",lowest thrombus weight
same,occlusion within 2 h,"[1]; rabbit EIM, 0.2 mg/kg IV bolus then 12 ug/kg/min",completely prevented occlusion
same,occlusion within 2 h,"[1]; rabbit EIM, 0.2 mg/kg IV bolus then 24 ug/kg/min",completely prevented occlusion
same,thrombosis weight,"[1]; rabbit EIM, infusion 4, 12, 24 μg/kg/min",dose-dependently reduced
same,bleeding time (BT),"[1]; rabbit, in vivo",did not affect
same,blood pressure (mean arterial pressure),"[1]; rabbit, in vivo",did not affect
same,heart rate,"[1]; rabbit, in vivo",did not affect
same,partial thromboplastin time,"[1]; rabbit, in vivo",did not affect
same,prothrombin time,"[1]; rabbit, in vivo",did not affect
same,reduction of thrombus weight,[10]; 1.0 mg/kg ip bolus daily for 2 days,53%
same,reduction of thrombus weight,[10]; high dose: 0.2 mg/kg ip bolus then 0.09 mg/kg/h sc for 48 h,65%
same,reduction of thrombus weight,[10]; low dose: 0.2 mg/kg ip bolus then 0.03 mg/kg/h sc for 48 h,44%
same,prolongation of BT,"[10]; mouse, in vivo",did not cause detectable prolongation
same,prolongation of TCT,"[10]; mouse, in vivo",did not cause detectable prolongation
same,prolongation of aPTT,"[10]; mouse, in vivo",did not cause detectable prolongation
same,bleeding time,"[10]; mouse, in vivo, ip, 1 mg/kg",without increasing bleeding time
same,"deaths, increased bleeding or gross side effects",[11],no deaths or increased bleeding or gross side effects
same,reduction of collagen deposition,[11]; Masson's trichrome 14 days post DVT induction,33%
same,elimination half-life (t1/2),[12],360 min
same,time by which detectable in the plasma after administration (ELISA),[13],≤ 30 min
same,binding to thrombus,[14],bound to thrombus
same,signal in the non-injured control carotid,[14],no increased signal
same,APT402 plasma concentration over time,[15],maintained up to 120 min during infusion
same,extension of elimination half-life compared to annexin V,[16]; 6 h vs 20 min,18 fold
same,distribution phase half-life,"[16]; rabbit, 0.40 mg/kg IV bolus",30 min
same,time of maximal activity in the plasma after administration,"[16]; rabbit, 0.40 mg/kg IV bolus, ADPase activity",30 min
